Measurements as given in patent US8758746B2, “Fertilization modulation compounds and process for implementing them” (Universite Joseph Fourier, priority 2009, dated 2014).
Where “and” joins values, the source holds several entries; their conditions need not be identical. Equal values may be shown once. Entries after “also recorded” stand apart in the source; their conditions may differ.

What was measured:
[1] = system: sperm and oocytes; test: In vitro fertilization (IVF), two-cell embryos scored at 24 h; type: cell-based, mouse; settings: for comparison with mGX sPLA2 effect (FIG. 7): around 10 μM, 45 min during capacitation or 4 h after gamete mixing
[2] = system: spermatozoa; settings: inhibitors of PLA2; Roldan and Fragio 1993; Llanos et al 1993; cited from earlier work
[3] = system: Sperm cells from caudae epididymes; test: Acrosome reaction assay (coomassie blue staining); type: cell-based, mouse; settings: for AR induced above basal spontaneous level of AR / ability to trigger acrosome reaction (AR): uncapacitated sperm; for ability to trigger acrosome reaction (AR): incubated 10 min with sPLA2 (200 nM in FIG. 2A; pro-mGX at 200 nM)
Protocol: Sperm cells from caudae epididymes were allowed to swim in M2 medium for 10 min. Then, sperms were incubated, if necessary, with different sPLA2 in M16 medium at 37° C. for 10 min. Cells were transferred in PBS solution and then fixed with 4% PFA solution for 2 min. Sperm was washed with 100 mM ammonium acetate for 2 min and wet-mounted on slides and allowed to air dry. Slides were then rinsed with water and stained with coomassie blue (0.22%) for 2 min and finally rinsed with water. Slides were counted immediately and 150 sperm cells were scored at least.
The rate of AR increase from 20%, corresponding to spontaneous acrosome-reacted sperm, to 60% in the presence of 200 nM active sPLA2. In order to better characterize the potency of such compounds to trigger AR, dose-response curves for mGX and mGIIA were realized (FIG. 2B).
Sperm were capacitated with 2% BSA in M16 medium, in a 5% CO2 incubator at 37° C. At 45 and 80 min, 200 nM of mGX was introduced in the capacitation medium and sperm were fixed 10 min later. The rates of acrosome-reacted sperm observed in the presence of sPLA2 were compared with control sperm capacitated during 55 or 90 min in the capacitation medium (FIG. 2C). […] Moreover, the difference between spontaneous AR and total rate, corresponding to the sPLA2-induced fraction, was around stable throughout the capacitation progress: ≈39%, ≈36% and ≈35% at 10, 55 and 90 min respectively. It is important to notice that a small fraction of sperm of around 20% was reluctant to spontaneous AR or sPLA2-induced AR even in the presence of a high level of spontaneous AR.

[4] = system: sperm and oocytes; test: In vitro fertilization (IVF), two-cell embryos scored at 24 h; type: cell-based, mouse; settings: for rate of IVF (effect in words): OF1 sperm treated 10 min with 20 or 200 nM mGX
Protocol: Sperm cells, obtained by manual trituration of caudae epididymes from OF1 male mice, were allowed to swim in M2 medium for 10 min. Then, the sperm cells were transferred in M16 medium containing 2% BSA (Bovine Serum Albumen) and incubated 35 min for capacitation. After centrifugation, cells were then transferred in M16 medium and if necessary, incubated with 20 or 200 nM of mGX sPLA2 for 10 min. Sperm cells were centrifugated (1200 rpm, 5 min) and re-suspended in M16 medium to remove […] sPLA2 before to be used for in vitro fertilization experiment. All experiments were carried out at 37° C. Eggs were collected from mature OF1 females (6-weeks old) synchronized with 7.5 units of PMSG (pregnant mare serum gonadotrophin) and 7.5 units of hCG (human chorionic gonadotrophin) before collection.
IVF using standard protocols were carried out. Eggs were incubated with approximately 10^4 sperm cells, and unbound sperms were washed away after 4 hours of incubation. Twenty four hours after fertilization, the two-cell embryos stages (FIG. 4) were scored as an indication of successful fertilization (FIGS. 5 and 6).
In vitro fertilizations (IVF) were realized with sperm capacitated 35 min in 2% BSA and then treated 10 min with 20 or 200 nM mGX. Before treated sperm were introduced within oocytes, sperm were washed and centrifuged to remove sPLA2 in order to avoid artefact effects of sPLA2 on sperm-oocyte fusion (Riffo and Parraga, 1997). sPLA2 contaminant in the IVF medium was below 1 nM for sperm treated at 200 nM.

[5] = system: Sperm cells; test: Electron microscopy of sPLA2-induced acrosome reaction; type: cell-based, mouse; settings: uncapacitated sperm
Protocol: Sperm cells were fixed with 2.5% glutaraldehyde in 0.1 M cacodylate buffer pH 7.4 during 2 hours at room temperature. Cells were then washed with buffer and post fixed with 1% Osmium tetroxyde in the same buffer during 1 hour at 4° C. After extensive washing with water cells were then stained with 0.5% uranile acetate pH 4 overnight at 4° C. Cells were then dehydrated through graded alcohol (30%-60%-90%-100%-100%-100%) and infiltrate with a mix of 1/1 epon/alcohol 100% during 1 hour before several bath of fresh epon (Flukka) during 3 hours. Finally, cells were centrifugated and immersed in fresh Epon and polymerised during 3 days at 60° C. Ultrathin sections of the cell pellet were cut with an ultramicrotome (Leica). Sections were post-stained with 4% uranile acetate and 1% lead citrate before being observed in an electron microscope at 80 kV (JEOL 1200EX).
It was important to check with electron microscopy (EM) that sPLA2 induced a morphologically normal acrosome reaction. The morphological criteria by which an acrosome reaction is evaluated to be normal are relatively limited: first, the outer acrosomal membrane should present vesiculation, second, the plasma membrane should fuse with the outer acrosomal membrane and present a characteristic double hair pin shape at the base of the acrosome (Green, D. P. (1978) The induction of the acrosome reaction in guinea-pig sperm by the divalent metal cation ionophore A23187. J. Cell Sci., 32:137-51.:137-151.)
For these experiments, uncapacitated sperm was used in order to reduce the contribution of spontaneous AR and 200 nM sPLA2 to get maximum sPLA2-induced AR. Sperm were incubated 10 min with mGX sPLA2 or the calcium ionophore A23187 and then fixed. In the presence of A23187, all acrosome-reacted sperm presented complete AR, with the 3 morphological criteria, as described above.

For `CCCCC/C=C\C/C=C\C/C=C\C/C=C\CCCC(=O)O` [arachidonic acid], the “comparison with mGX sPLA2 effect (FIG. 7)” value [1] was “mimic mGX sPLA2”.

In the case of `CCN(CC)CCCC(C)Nc1c2ccc(Cl)cc2nc2ccc(OC)cc12` (centres unmarked) [mepacrine], the “effect on calcium-ionophore induced acrosome reaction” value [2] is given as “block”.

For Lysophosphocholine [LPC], the “rescue of fertilization decreased by LY329722” value ([1]; LPC 1 μM during capacitation with LY329722 2 μM (FIG. 8)) was “rescued” and the “comparison with mGX sPLA2 effect (FIG. 7)” value [1] was “mimic mGX sPLA2”.

For `O=C(CBr)c1ccc(Br)cc1` [4-bromophenacyl bromide], the “effect on calcium-ionophore induced acrosome reaction” value [2] is given as “block”.

B1: mGX: Recombinant mouse group X secreted phospholipase A2 (protein, UniProt Q9QXX3 29-151, looked up)
Group 10 secretory …: GLLELAGTLDCVGPRSPMAYMNYGCYCGLGGHGEPRDAIDWCCYHHDCCYSRAQDAGCSPKLDRYPWKCMDHHILCGPAENKCQELLCRCDEELAYCLAGTEYHLKYLFFPSILCEKDSPKCN
For B1, the “ability of mGX to trigger AR with 2 mM Ni2+” value ([3]; 200 nM mGX, 2 mM Ni2+ in the bath, n=3) was “block”, the “sPLA2-induced fraction (difference between total rate and spontaneous AR)” value ([3]; 200 nM mGX, 10 min (non-capacitated sperm)) was “≈ 39%” and the “ability of mGX to trigger AR without external calcium” value ([3]; 200 nM mGX, 10 min, external calcium removed, n=3) was “block”. The “sPLA2-induced fraction (difference between total rate and spontaneous AR)” value ([3]; 200 nM mGX, 55 min of capacitation in 2% BSA) was “≈ 36%”, the “sPLA2-induced fraction (difference between total rate and spontaneous AR)” value ([3]; 200 nM mGX, 90 min of capacitation in 2% BSA) was “≈ 35%” and the “very low dose from which AR is triggered” value ([3]; capacitated and uncapacitated sperm, in the absence of oocytes) was 0.2 nM. The “total rate of acrosome-reacted sperm versus control” value ([3]; capacitated sperm (2% BSA, 55 or 90 min), 200 nM mGX for the last 10 min) was “able to trigger acrosome reaction; also recorded: increased at all capacitation durations”, the “AR induced above basal spontaneous level of AR” value ([3]; 0.2 nM sPLA2) was 15% and the “AR induced above basal spontaneous level of AR” value ([3]; 0.2 nM sPLA2, listed as mGX sPLA2) was “around 20%”. The “ability to trigger acrosome reaction (AR)” value (shortened to “ability … (AR)”) [3] was “trigger acrosome reaction; also recorded: able to trigger AR”, the “rate of IVF (effect in words)” value [4] was “promotes fertilization” and the “rate of IVF (effect in words)” value ([4]; listed as mGX sPLA2) was “increased”. For the same molecule, the “fertilization outcome (2 cell embryo at 24 h post fertilization)” value ([4]; sPLA2 at 200 nM (FIG. 7)) was “improve fertilization outcome”, the “rate of two cells embryos stage at 24 hours (IVF rate)” value ([4]; sperm from OF1 males treated 10 min with 200 nM mGX, control 45% (44.0±8.9%)) was 65% and 65.4 ± 5.6% and the “increase of fertilization rate versus non-treated sperm” value ([1]; C57Bl/6 strain, mGX treated sperm (200 nM)) was 142%. The “control IVF with sPLA2 present during sperm-oocyte incubation” value ([1]; sperm and oocytes incubated with 1 nM mGX) was “no difference was noticed”, the “rate of two-cells embryos stage at 24 hours” value ([1]; sperm from C57Bl/6 males treated with 200 nM mGX, control 8.2%) was 19.9% and the “kinetic of induced AR compared with A23187” value ([5]; 200 nM, 10 min) was “slower”. The “morphology of induced acrosome reaction (electron microscopy)” value ([5]; incubated 10 min (200 nM sPLA2)) was “normal morphological feature”.

B2: mGIIA: Recombinant mouse group IIA secreted phospholipase A2 (protein, UniProt P31482 22-146, looked up)
Phospholipase A2, membrane …: NIAQFGEMIRLKTGKRAELSYAFYGCHCGLGGKGSPKDATDRCCVTHDCCYKSLEKSGCGTKLLKYKYSHQGGQITCSANQNSCQKRLCQCDKAAAECFARNKKTYSLKYQFYPNMFCKGKKPKC
For B2, the “AR induced above basal spontaneous level of AR” value ([3]; 2 nM sPLA2) was “around 20%” and the “ability … (AR)” value [3] was “trigger acrosome reaction; also recorded: able to trigger AR”.

B3: mGV: Recombinant mouse group V secreted phospholipase A2 (protein, UniProt P97391 21-137, looked up)
Phospholipase A2 group V: GLLELKSMIEKVTGKNAFKNYGFYGCYCGWGGRGTPKDGTDWCCQMHDRCYGQLEEKDCAIRTQSYDYRYTNGLVICEHDSFCPMRLCACDRKLVYCLRRNLWTYNPLYQYYPNFLC
With B3 the “ability … (AR)” value [3] was “trigger acrosome reaction”.

B4: pro-mGX: the inactive pro-enzyme (precursor molecule) of mGX (protein, UniProt Q9QXX3 18-151, looked up)
pro-form: EATRRSHVYKRGLLELAGTLDCVGPRSPMAYMNYGCYCGLGGHGEPRDAIDWCCYHHDCCYSRAQDAGCSPKLDRYPWKCMDHHILCGPAENKCQELLCRCDEELAYCLAGTEYHLKYLFFPSILCEKDSPKCN
modifications: pro-form
With B4 the “ability … (AR)” value [3] was “unable to trigger AR” and the “ability … (AR)” value ([3]; listed as Pro-mGX) was “unable to trigger sperm acrosome reaction”.
